± gives the standard deviation of the averaged measurements.
Tested on: ATP
Assay: switch fluorescence ratio, 500 uM ATP over buffer (Cy3 cluster intensity, sum of 5 cycles each) (fold (ratio)); higher = stronger signal-on switching upon ATP binding; sequences stand for … in TCGTCGGCAGCGTCAGATGTGTATAAGAGACAGTTTTTTTTTTTTTTTTTTTTTTTTT…TC
Details: aptamer strand: ATP DNA aptamer (quencher-CACCTGGGGGAGTATTGCGGAGGAAGG + anchor), 100 nM annealed; ATP concentration: 500 uM
Summary of the method: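 Cy3-labelled switching-strand clusters on a modified Illumina MiSeq flow-cell were annealed to 100 nM quencher-labelled ATP aptamer and imaged first in selection buffer, then after 15 min with 500 uM ATP at 22 °C. NaOH stripping and re-annealing separated each of five buffer/ATP cycles, and clusters outside 100-1000 RFU were excluded. The fluorescence ratio sums target-cycle Cy3 intensity over buffer-cycle Cy3 intensity per cluster and averages it per switch-domain sequence.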
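Also: ATP exposure 15 min at 22 °C before imaging.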

Sequence	switch fluorescence ratio
TTCTTTAATT	0.963 ± 0.01
TTCTTTGGGG	1.04 ± 0.093
TTCTTTGGGT	0.947 ± 0.036
TTCTTTTGTT	1 ± 0.025
TTCTTTTTGC	0.9678 ± 0.0084
TTCTTTTTGG	0.97 ± 0.042
TTGAAAAAGT	0.992 ± 0.018
TTGAAAAGAT	1.05 ± 0.04
TTGAAAATGG	0.992 ± 0.026
TTGAAACTCG	1.063 ± 0.0023
TTGAAATCGC	1.01 ± 0.041
TTGAAATTGG	0.99 ± 0.031
TTGAACGGGT	1.07 ± 0.1
TTGAACGTTT	0.974 ± 0.019
TTGAACTGTG	1.02 ± 0.22
TTGAAGGATG	0.997 ± 0.029
TTGAAGTCCG	1.03 ± 0.026
TTGAATATCT	1.03 ± 0.032
TTGAATATTT	1 ± 0.014
TTGAATGGTT	0.994 ± 0.021
TTGAATGTCA	0.968 ± 0.019
TTGACAATGG	0.99 ± 0.012
TTGACAGT	0.9777 ± 0.0022

Sequence	switch fluorescence ratio
TTGACCGGGA	1.14 ± 0.27
TTGACCTGGG	1.1 ± 0.098
TTGACGACGG	1.01 ± 0.048
TTGACGATTT	1.05 ± 0.063
TTGACGGAGA	0.993 ± 0.039
TTGACGTATA	1.96 ± 1.2
TTGACTTGTC	0.9991 ± 0.0069
TTGAGAAGGG	1.04 ± 0.04
TTGAGAGCGG	1.01 ± 0.047
TTGAGAGGGA	0.99 ± 0.019
TTGAGAGGTT	1.02 ± 0.039
TTGAGAGTTT	1.04 ± 0.093
TTGAGATATG	0.9989 ± 0.0076
TTGAGCAAGG	1.06 ± 0.089
TTGAGCTTGT	1.02 ± 0.027
TTGAGGACGT	0.975 ± 0.045
TTGAGGATTG	1 ± 0.018
TTGAGGGAAT	0.992 ± 0.033
TTGAGGTCGT	1.023 ± 0.0038
TTGAGGTCTT	0.964 ± 0.024
TTGAGTAACT	0.967 ± 0.024
TTGAGTACCG	0.959 ± 0.022
TTGAGTACGT	0.992 ± 0.045

Sequence	switch fluorescence ratio
TTGAGTACTA	1.01 ± 0.022
TTGAGTATGC	1.07 ± 0.047
TTGAGTGAGC	0.988 ± 0.025
TTGAGTGGGT	0.99 ± 0.042
TTGAGTGTGC	1.02 ± 0.023
TTGAGTTTAT	1.02 ± 0.12
TTGAGTTTGT	0.977 ± 0.015
TTGATAACAA	1.04 ± 0.036
TTGATAGAAA	1.01 ± 0.038
TTGATAGCTT	0.998 ± 0.018
TTGATAGGGG	1.01 ± 0.031
TTGATATAAT	0.981 ± 0.014
TTGATATCGG	0.979 ± 0.023
TTGATATGGT	0.997 ± 0.022
TTGATCGATG	0.9886 ± 0.0068
TTGATCGCTC	1.82 ± 1
TTGATCTGTT	0.972 ± 0.021
TTGATGAAGA	1.01 ± 0.036
TTGATGCCCA	0.97 ± 0.023
TTGATTATAT	1.02 ± 0.012
TTGATTTGTC	0.988 ± 0.011
TTGCAAGAGA	1.022 ± 0.0082
TTGCAAGGGC	1.08 ± 0.074

Sequence	switch fluorescence ratio
TTGCAATTGG	2.56 ± 2
TTGCACCGTT	1.01 ± 0.038
TTGCACGCCT	1.01 ± 0.024
TTGCACGGTC	1.03 ± 0.085
TTGCAGACTT	1.05 ± 0.072
TTGCAGGGGA	1.3 ± 0.38
TTGCAGGTGT	1.85 ± 0.47
TTGCAGTGTT	1.06 ± 0.098
TTGCATACGT	1.61 ± 0.76
TTGCATTTGG	1.01 ± 0.088
TTGCATTTGT	1 ± 0.03
TTGCCAAATT	1.12 ± 0.13
TTGCCGCACG	1.15 ± 0.024
TTGCCGGCTC	1.03 ± 0.029
TTGCCTGCGG	0.999 ± 0.0067
TTGCCTGTAT	0.9731 ± 0.0073
TTGCGACACC	1.06 ± 0.042
TTGCGCTACG	1.01 ± 0.011
TTGCGCTCGT	0.993 ± 0.011
TTGCGGCCTT	1.09 ± 0.081
TTGCGGCGCT	1.01 ± 0.043
TTGCGGCGGT	0.983 ± 0.033
TTGCGGGTGA	1.01 ± 0.059

Sequence	switch fluorescence ratio
TTGCGGTCGT	1.002 ± 0.0023
TTGCGGTGGG	1.03 ± 0.018
TTGCGTCATT	1.03 ± 0.016
TTGCGTGTGA	1.01 ± 0.028
TTGCGTTAGG	1.04 ± 0.012
TTGCGTTATC	1.2 ± 0.27
TTGCGTTGCG	0.9685 ± 0.0036
TTGCGTTGGC	0.984 ± 0.043
TTGCTACACG	1.04 ± 0.02
TTGCTACTCG	1.62 ± 0.73
TTGCTATCTT	0.983 ± 0.052
TTGCTATGGG	0.978 ± 0.017
TTGCTATGTG	0.979 ± 0.015
TTGCTCAAGC	0.999 ± 0.068
TTGCTCGAAA	0.987 ± 0.075
TTGCTGATTC	0.9811 ± 0.0067
TTGCTGGGGG	1.01 ± 0.059
TTGCTGTTAC	1.15 ± 0.15
TTGCTGTTAG	0.995 ± 0.0074
TTGCTGTTTC	1 ± 0.067
TTGCTTAAGG	0.997 ± 0.026
TTGCTTCAGC	0.994 ± 0.097
TTGCTTGAGC	1.006 ± 0.0092

Sequence	switch fluorescence ratio
TTGCTTGGAA	0.992 ± 0.026
TTGCTTGGGA	1.04 ± 0.014
TTGCTTTGTG	1 ± 0.042
TTGCTTTTGC	1 ± 0.023
TTGCTTTTGT	1.02 ± 0.025
TTGCTTTTTT	0.992 ± 0.013
TTGGAAAATG	1.02 ± 0.037
TTGGAAGGGT	1.01 ± 0.031
TTGGAATAAA	1.02 ± 0.015
TTGGAATCGA	1.06 ± 0.035
TTGGACCGTG	0.973 ± 0.069
TTGGACGGTA	1.06 ± 0.1
TTGGACTCCG	1.14 ± 0.15
TTGGACTCTT	0.977 ± 0.038
TTGGAGAGGG	1.06 ± 0.058
TTGGAGATAT	1.07 ± 0.13
TTGGAGCACG	1.03 ± 0.049
TTGGAGGACA	1.06 ± 0.019
TTGGAGGCGT	0.9814 ± 0.0057
TTGGAGGGGC	1 ± 0.071
TTGGAGGTCG	1.03 ± 0.019
TTGGAGTCTG	0.994 ± 0.015
TTGGAGTTTG	1.02 ± 0.051

Sequence	switch fluorescence ratio
TTGGATAGCG	0.982 ± 0.017
TTGGATATTT	1 ± 0.015
TTGGATCGCA	0.985 ± 0.017
TTGGATGAAG	0.982 ± 0.022
TTGGATGACA	1.02 ± 0.031
TTGGATGTGA	0.9622 ± 0.0052
TTGGATTAGG	1.01 ± 0.024
TTGGATTGTT	1.04 ± 0.025
TTGGATTTAT	1.011 ± 0.0093
TTGGCACCCG	1.04 ± 0.034
TTGGCCGCAT	1.24 ± 0.09
TTGGCCGTAG	1.01 ± 0.028
TTGGCGAAGG	0.982 ± 0.045
TTGGCGCCGT	0.998 ± 0.044
TTGGCGCGGC	1.1 ± 0.063
TTGGCGCTGT	0.971 ± 0.0017
TTGGCGGGAT	1.03 ± 0.017
TTGGCGGTGG	1.08 ± 0.26
TTGGCGTCAA	1.36 ± 0.51

From the supplement of paper PMC10126150
